Measurements as given in article doi:10.1101/829945.

Target: fibrin fragment E
Assay: SPR

soluble recombinant human αVβ3-integrin (from UniProt P06756 31-1048; P05106 27-718) (receptor)
Kd: 0.002 to 0.02 µM
